Source: article PMC3037694

Key:
[1] = target: HA-tagged bovine pancreatic RNase N113S expressed in CHO cells (bovine) (UniProt P61823)
[2] = target: HA-tagged bovine pancreatic RNase expressed in CHO cells (bovine) (UniProt P61823)

Substance | efficiency of secretion after a 60-min chase (pulse-chase, CHO cells) [1] [%] | efficiency of secretion after a 60-min chase (pulse-chase, CHO cells) [2] [%]
HA-tagged bovine pancreatic RNase N113S expressed in CHO cells (from UniProt P61823 27-150) (enzyme) | 72 | 
HA-tagged bovine pancreatic RNase expressed in CHO cells (from UniProt P61823 27-150) (enzyme) |  | 45
